B1: PAVE2 (Tb927.9.11540), endogenous (natural protein, T. brucei (endogenous in 427 cells), UniProt Q38DN4 1-438, looked up)
chain: MADVSADSDAQVELERLNDVIDKYTCQVEHIDNLLQELEEENNSDSVSRQIAEYQSALESHPENIPAEDALEVITRLENTLKIVQRRNHLLEKENGTQNRLLEERSNVLLNATKTFDHIVDVTGWHDKFLFDAEDLRSKVADIREMSNIEAVVQKELRVAQGIIKKKEAALRQLEELVEQGKEQEAVLNNVYNDIRVKERDCSEVEMQLVRLRKSVAKTDEALAVFDLHNQNASLAYMESDRDYLRDSVAEMKSTTRRQDNVIKAQLTRQQQLQTRLDVIMKSLREMKLDKKYERNIPKSALVPSASREEPEDVSKILPESECIPVPTYRLLHKNNEMLRVIVMRKNMLVLEKNAVIEALEAGLAKYGSALITTYKEQQDLRQNKDMELIELMDDLQQQHSNYLEKLEELRLQNAALKKKMYRSTRQHAPLKGTRPMR
notes: PAVE2, Trypanosoma brucei, TriTrypDB Tb927.9.11540, predicted MW 51 kDa; also called uncharacterized protein Tb927.9.11540; source: endogenous, T. brucei 427 lysate (mNeonGreen-PAVE1 cells)

Key:
[1] = biological target: Taxol-stabilized bovine microtubules labeled with Cy5 (bovine) (UniProt Q6B856); test: not stated; (the row names no known assay)
[2] = biological target: T1, mNeonGreen-PAVE1 (Posterior And Ventral Edge protein 1), tagged at both endogenous alleles (T. brucei (endogenous locus, 427 strain), UniProt Q581X9 1-421); test: affinity purification with mass spectrometry; mNeonGreen-PAVE1 captured from sonicated, clarified T. brucei lysate on magnetic mNeonGreen-Trap nanobody beads, 1 hr 4°C, 6 washes; on-bead tryptic digest and LC-MS/MS, and silver-stained SDS-PAGE of the eluate; WT 427 cells as control; conditions: partners not purified
T1 construct: PAVE1, Trypanosoma brucei, TriTrypDB Tb927.8.2030; expressed from the endogenous locus with an N-terminal tag; also called mNG-PAVE1; dET-mNeonGreen-PAVE1; source: endogenously tagged at both alleles, T. brucei 427 procyclic cells, in sonicated and clarified lysate; not shown: mNeonGreen, N-terminal, kept
T1 sequence (looked up): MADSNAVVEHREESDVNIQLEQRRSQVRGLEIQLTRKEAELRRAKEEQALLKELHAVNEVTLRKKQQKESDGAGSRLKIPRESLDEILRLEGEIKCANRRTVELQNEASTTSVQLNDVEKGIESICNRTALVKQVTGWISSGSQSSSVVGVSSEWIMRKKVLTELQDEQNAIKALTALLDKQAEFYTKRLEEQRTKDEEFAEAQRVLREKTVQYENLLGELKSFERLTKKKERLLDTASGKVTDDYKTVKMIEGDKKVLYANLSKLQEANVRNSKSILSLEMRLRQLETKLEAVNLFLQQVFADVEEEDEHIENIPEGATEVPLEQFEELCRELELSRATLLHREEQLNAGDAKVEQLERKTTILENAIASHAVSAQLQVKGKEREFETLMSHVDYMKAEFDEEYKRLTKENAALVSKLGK

Row | Molecule | time that pre-seeded patches remained after wash-out [1] [min] | stoichiometry N [2]
1 | PAVE complex (mNeonGreen-PAVE1 with Strep-PAVE2) | > 20 | –
2 | B1 | – | ~1
